2 molecules from patent US20140356384A1 (COLE POLYTECHNIQUE F D RALE DE LAUSANNE EPFL, published 2014) can be followed below.

Experiment [1] addresses T1, mouse glycophorin-A (GYPA) on the erythrocyte membrane (mouse, UniProt P14220 1-168). Kind of experiment: equilibrium binding to mouse erythrocytes by flow cytometry, one-site binding fit. On the technique in general: A flow cytometer gives signals particle by particle.
The target of experiment [2] is T1, mouse glycophorin-A (GYPA) on the …. Kind of experiment: flow cytometry of mouse erythrocytes incubated with the OVA conjugate, OVA detected on the cell surface.

B1: ERY1-OVA (ERY1 peptide chemically conjugated to ovalbumin through SMCC) (other)
peptide: WMVLPWLPGTLDGGSGCRG
chain: GSIGAASMEFCFDVFKELKVHHANENIFYCPIAIMSALAMVYLGAKDSTRTQINKVVRFDKLPGFGDSIEAQCGTSVNVHSSLRDILNQITKPNDVYSFSLASRLYAEERYPILPEYLQCVKELYRGGLEPINFQTAADQARELINSWVESQTNGIIRNVLQPSSVDSQTAMVLVNAIVFKGLWEKAFKDEDTQAMPFRVTEQESKPVQMMYQIGLFRVASMASEKMKILELPFASGTMSMLVLLPDEVSGLEQLESIINFEKLTEWTSSNVMEERKIKVYLPRMKMEEKYNLTSVLMAMGITDVFSSSANLSGISSAESLKISQAVHAAHAEINEAGREVVGSAEAGVDAASVSEEFRADHPFLFCIKHIATNAVLFFGRCVSP
modifications: lysine side chains carry SMCC linked to the cysteine of the ERY1 peptide; C-terminal amide (CONH2); cysteine side chain conjugated through SMCC to lysine side chains of OVA
notes: also called ERY1-conjugated protein
Broadly, the Kd is the equilibrium constant for the complex coming apart. A lower Kd goes with higher affinity. B1: the Kd in experiment [1] worked out at 6.2 nM.

B2: MIS-OVA (OVA conjugated with the mismatch peptide through SMCC) (other)
peptide: PLLTVGMDLWPWGGSGCRG
chain: B1 chain
modifications: lysine side chains carry SMCC linked to the cysteine of the MIS peptide; C-terminal amide (CONH2); cysteine side chain conjugated through SMCC to lysine side chains of OVA
Turning to B2, the binding result in experiment [2] is on record as “no binding”.
